Ends that are not written are not given here. Peptide text beside a SMILES is read from it. * marks the point of attachment. X1 = CC[N+]1=C(C=CC=CC=C2N(CCCCCC(=O)*)c3ccc4c(S(=O)(=O)O)cc(S(=O)(=O)O)cc4c3C2(C)C)C(C)(C)c2c1ccc1c(S(=O)(=O)O)cc(S(=O)(=O)[O-])cc21
What was measured:
[1] = tested on: DQ-gelatin from pig skin; assay: Enzymatic activity of recombinant MT1-MMP; type: biochemical; details: refolded recombinant catalytic domain; unit not given
Experimental: The MT1-MMP catalytic domain (20 kDa) was expressed in Escherichia coli (E. coli) as inclusion bodies. The activated form was produced through refold method. The recombinant human MT1-MMP catalytic domain was produced by E. coli BL21 that carried expression plasmids. The bacteria were grown to an optical density of 0.4 at 37 °C prior to induction. The overexpression of the protein of interest was induced by adding […] to a final concentration of 0.5 mM. Cultivation was proceeded for 4 h before the bacteria were broken by an ultrasonic wave. The inclusion bodies (proMT1-MMP) were solubilized and purified through his-tag affinity chromatography (General Electric, USA), as well as refolded by using dialysis bags to gradually reduce high denaturant concentrations in this process. […]
The protein samples from induced lysates, inclusion bodies and renaturation were separated by 15% reducing sodium dodecyl sulfate–polyacrylamide gel electrophoresis (SDS–PAGE) gel followed by Coomassie Brilliant Blue R-250 (CBB) staining. Protein concentration was measured at each step by the BCA Protein Assay Kit (Thermo Scientific, USA) according to manufacturer’s instructions. After renaturation of MT1-MMP, the enzymatic activity of the recombinant MT1-MMP was measured by using fluorescein conjugated substrate, DQ™-gelatin from pig skin (Molecular Probes).

[2] = tested on: MDA-MB-435 tumors (MT1-MMP); assay: Whole-body small animal near-infrared fluorescence imaging
Experimental: (§1) All of the animal experiments were conducted in accordance with the principles and procedures outlined in the ethics committee of Jilin University, and approved by Animal Care and Use Committee (CC/ACUCC) of Xiamen University. Subcutaneous sites of athymic nude mice (BALB/c, 6 weeks old, female, 19–21 g) were injected with a suspension of 1 × 10^7 breast carcinoma MDA-MB-435 cells in PBS (100 μL). Tumor growth was assessed with caliper measurements every 2 days, and tumor size was determined using the formula: V = a^*(b^2)/2, where a is the maximum length and b is the maximum width of each tumor in mm respectively. The tumor-bearing mice (n = 5/group) were subjected to optical imaging experiments once the tumor volume (in the right front leg region) reached average size of 200 mm^3 (Error less than 18 mm^3), mice were randomly allocated into three groups: Cy5.5-MT1-AF7p-H4R, Cy5.5-MT1-AF7p-H4R-Block or Cy5.5-MT1-AF7p were injected via their tail vein with […]. Fluorescent images and analysis were performed by using an IVIS Lumina II imaging system (Caliper Life Sciences, MA, USA; Excitation Filter: 630 nm, Emission Filter: 700 nm) at different time point post-injection (1, 2, 4, 6, 12, and 24 h). During injection and image acquiring process, mice were anesthetized with 2.5% isoflurane in oxygen at a flow of 1.5 L/min. Images were normalized to the same scale and analyzed. For semi-quantitative comparison, the regions of interest (ROI) were drawn over the tissues of interest, and the scaled average signal (photons cm^−2 s^−1) for each area was measured. Fluorescent signals from ROI were further corrected by the mice body weights. Results were presented as the mean ± SD for a group of five animals.

[3] = tested on: MT1-MMP; assay: AFM force curve measurement, peptide on tip against immobilized MT1-MMP; type: binding, human; details: 25 °C; for Binding force (peak position of force histogram): peptide on AFM tip via NHS-PEG18-aldehyde, MT1-MMP on APTES mica, PBS, 300 force curves, Gaussian fit
Experimental: The MT1-MMP catalytic domain (20 kDa) was expressed in Escherichia coli (E. coli) as inclusion bodies. The activated form was produced through refold method. The recombinant human MT1-MMP catalytic domain was produced by E. coli BL21 that carried expression plasmids. The bacteria were grown to an optical density of 0.4 at 37 °C prior to induction. The overexpression of the protein of interest was induced by adding […] to a final concentration of 0.5 mM. Cultivation was proceeded for 4 h before the bacteria were broken by an ultrasonic wave. The inclusion bodies (proMT1-MMP) were solubilized and purified through his-tag affinity chromatography (General Electric, USA), as well as refolded by using dialysis bags to gradually reduce high denaturant concentrations in this process. The refolding buffer included 50 mM HEPES, 10 mM CaCl2, 200 mM NaCl, 1 mM phenylmethylsulfonyl fluoride, 20 μM ZnCl2, 0.01% Brij-35, 5% Glycerol, 100 μg/ml DNase, at a pH 7.5.
The surface layer of the mica was stripped to expose the silanol group-coated surface. Then, the mica was treated with 3-aminopropyltriethoxysilane (APTES, vapor) for 1.5 h at room temperature and dried in vacuum. To immobilize the protein or the peptide, the activated mica surface was immerged into MT1-160p or MT1-MMP solution (300 µg/mL in PBS) for 15 min, rinsed and kept in PBS buffer.
AFM cantilever tips (MSCT) were purchased from Veeco (CA). The polypeptides were covalently immobilized on the tips by using chemical reactions as previously described. […]
The force curves were measured by using a PicoPSM 5500 instrument (Agilent Technologies, MA). […] The interaction force were detected at different points on the substrate. Over 1,000 force–distance cycles were collected, and a total of 300 force curves were recorded at different positions on the substrate. The average force values were summarized and calculated in the form of histograms and were expressed as a probability (%), which was obtained by dividing each count number by the total number of measured force curves.

[4] = Whole-body small animal near-infrared fluorescence imaging; details: athymic nude BALB/c, mouse, in vivo, iv
Experimental: as §1

[5] = tested on: MT1-MMP; assay: Isothermal titration calorimetry; set-up: species or system human; details: 25 °C; 10 mM HEPES, 150 mM NaCl, pH 7.4; 1000 rpm; one-site binding model
Experimental: The ITC experiments were conducted by using a MicroCal ITC-200 system (General Electric, USA) to determine the thermodynamic parameters of the polypeptides. The peptide of interest was dissolved in 10 mM HEPES and 150 mM NaCl solution at pH 7.4. All titrations were performed at 25 °C by injecting aliquots of a 40 μL MT1-160p (1 mM) degassed solution in a syringe into the calorimeter cell containing 200 μL of binding peptides (0.1 mM) degassed solution at a stirring rate of 1000 rpm. The baseline was corrected manually and the heat data were processed by fitting the ITC data into the NanoAnalyze software.

[6] = tested on: MDA-MB-435 tumors (MT1-MMP)
Experimental: The mice were injected with 1 nM Cy5.5-peptide to evaluate the distribution of affinity peptides in tumor tissues and major organs. At 4 h post-injection, the tumor-bearing mice were sacrificed, and their major organs, tissues, and tumors were harvested and placed on a black paper for ex vivo imaging (IVIS Lumina II, Caliper Life Sciences, MA, USA). The results were presented as the average scaled signal from the organs and the tumors.

[7] = tested on: MDA-MB-435 tumors (MT1-MMP); details: cited from earlier work
Experimental: Among the mutated peptides selected by virtual screening and docking based on the calculated lowest binding energy, the binding affinities were tested by conducting AFM, ITC, and cell fluorescence imaging in vitro. The tumor targeting effects of the optimal peptide were further confirmed by performing an in vivo imaging experiment in a tumor-bearing mice model.

For “MT1-MMP: recombinant human MT1-MMP catalytic domain (20 kDa) refolded from E. coli inclusion bodies”, which “Enzymatic activity against DQ-gelatin” value [1] is on record?
The value was 9.81 × 10^6.

Which “Specificity and affinity to MT1-MMP in optical imaging in vivo” value ([2]; compared with MT1-AF7p) does the source give for “HWKRLHNTKTFL [MT1-AF7p-H4R, HWKRLHNTKTFL]” here?
Its value is “higher specificity and affinity to the receptor (MT1-MMP) in optical imaging in vivo”.

And the “Tumor imaging effect vs MT1-AF7p” value ([2]; i.v. tail vein, 10 μM (1 nM in 100 μL PBS), Cy5.5-labeled, p ≤ 0.01, n = 5/group)?
The value was “better than MT1-AF7p (p ≤ 0.01)”.

What about the “Fluorescence intensity in tumor site vs MT1-AF7p” value ([2]; i.v. tail vein, all time points from 2 h to 24 h, Cy5.5-labeled, n = 5/group) of the same compound?
Its value is “considerably stronger than that of MT1-AF7p at all the time points from 2 h to 24 h”.

For `CC[N+]1=C(C=CC=CC=C2N(CCCCCC(=O)N[C@@H](Cc3c[nH]cn3)C(=O)N[C@@H](Cc3c[nH]c4ccccc34)C(=O)N[C@@H](CCCCN)C(=O)N[C@@H](CCCNC(=N)N)C(=O)N[C@@H](CC(C)C)C(=O)N[C@@H](Cc3c[nH]cn3)C(=O)N[C@@H](CC(N)=O)C(=O)N[C@H](C(=O)N[C@@H](CCCCN)C(=O)N[C@H](C(=O)N[C@@H](Cc3ccccc3)C(=O)N[C@@H](CC(C)C)C(=O)O)[C@@H](C)O)[C@@H](C)O)c3ccc4c(S(=O)(=O)O)cc(S(=O)(=O)O)cc4c3C2(C)C)C(C)(C)c2c1ccc1c(S(=O)(=O)O)cc(S(=O)(=O)[O-])cc21` [Cy5.5-MT1-AF7p-H4R] (X1-HWKRLHNTKTFL-OH; C-terminus assumed), which “Binding force (peak position of force histogram)” value [3] is on record?
Its value is 260 pN.

And the “Tumor signal after blocking with free peptide” value ([2]; excess free MT1-AF7p-H4R (1 μM) injected 30 min prior)?
Its value is “Low Cy5.5-MT1-AF7p-H4R accumulation was observed”.

And the “Time of maximum tumor accumulation (T/M)” value ([2]; i.v., MDA-MB-435 tumor)?
The value was 4 h.

What about the tissue to tissue ratio at 1 h [4] of the same compound?
Its tissue to tissue ratio at 1 h is 1.22 ± 0.22.

What about the tissue to tissue ratio at 2 h [4] of the same compound?
Its tissue to tissue ratio at 2 h is 2.77 ± 0.31.

And the tissue to tissue ratio at 4 h [4]?
Its tissue to tissue ratio at 4 h is 4.26 ± 0.56.

And the “Binding constant (Ka)” value [5]?
Its value is 175000 M⁻¹.

And the “Clearance route” value ([6]; 4 h post-injection, ex vivo quantification)?
The value was “prominent renal clearance”.

And the “Tumor fluorescent signal ex vivo” value ([6]; 4 h post-injection, i.v. 1 nM Cy5.5-peptide, average scaled signal)?
The value was 8.04 × 10^7.

What about the “Tumor fluorescent signal relative to MT1-AF7p” value ([6]; 4 h post-injection, 8.04 × 10^7 vs. 2.51 × 10^7) of the same compound?
Its value is 3.2 times.

What about the “Fluorescent signals in blocking group” value ([6]; ex vivo, blocked with excess free MT1-AF7p-H4R) of the same compound?
The value was “very few fluorescent signals were detected in the blocking group”.

Which “Binding constant (Ka)” value [5] does the source give for HWKHLHNTKTFL [MT1-AF7p] here?
Its value is 107000 M⁻¹.

With `CC[N+]1=C(C=CC=CC=C2N(CCCCCC(=O)N[C@@H](Cc3c[nH]cn3)C(=O)N[C@@H](Cc3c[nH]c4ccccc34)C(=O)N[C@@H](CCCCN)C(=O)N[C@@H](Cc3c[nH]cn3)C(=O)N[C@@H](CC(C)C)C(=O)N[C@@H](Cc3c[nH]cn3)C(=O)N[C@@H](CC(N)=O)C(=O)N[C@H](C(=O)N[C@@H](CCCCN)C(=O)N[C@H](C(=O)N[C@@H](Cc3ccccc3)C(=O)N[C@@H](CC(C)C)C(=O)O)[C@@H](C)O)[C@@H](C)O)c3ccc4c(S(=O)(=O)O)cc(S(=O)(=O)O)cc4c3C2(C)C)C(C)(C)c2c1ccc1c(S(=O)(=O)O)cc(S(=O)(=O)[O-])cc21` [Cy5.5-MT1-AF7p] (X1-HWKHLHNTKTFL-OH; C-terminus assumed) as the compound, how does the “Binding force (peak position of force histogram)” value [3] read?
Its value is 150 pN.

And the tissue to tissue ratio at 4 h [4]?
The tissue to tissue ratio at 4 h was 1.98.

What about the “Binding constant (Ka)” value [5] of the same compound?
Its value is 107000 M⁻¹.

And the “Tumor accumulation in MDA-MB-435 xenografts” value ([7]; compared with negative control)?
The value was “significantly higher tumor accumulation”.

With “HWKKLHNTKTFL [MT1-AF7p-H4K, MT1-AF7p with histidine 4 mutated to Lys]” as the compound, how does the “Affinity to MT1-MMP by AFM” value ([3]; single-molecule recognition force spectroscopy) read?
Its value is “had a nearly identical binding capacity with MT1-MMP than MT1-AF7P”.

With Cy5.5 [reference compound] as the compound, how does the “Tumor accumulation of free dye” value ([7]; within 48 h post-injection) read?
Its value is “did not accumulate in the tumor site within 48 h post-injection”.

Source: article PMC6037669, “Optimization of a MT1-MMP-targeting Peptide and Its Application in Near-infrared Fluorescence Tumor Imaging” (Scientific Reports, 2018)
